The experiment has as its target USP7 TRAF domain (residues 2-207), biotinylated (UniProt Q93009). As to the kind of experiment: fluorescence polarisation. The note with it: read at the highest USP7-TRAF concentration, about 190 µM; parent: est. 100; read off a plot.
Sequence of USP7 TRAF domain (residues 2-207), biotinylated (Q93009 2-207): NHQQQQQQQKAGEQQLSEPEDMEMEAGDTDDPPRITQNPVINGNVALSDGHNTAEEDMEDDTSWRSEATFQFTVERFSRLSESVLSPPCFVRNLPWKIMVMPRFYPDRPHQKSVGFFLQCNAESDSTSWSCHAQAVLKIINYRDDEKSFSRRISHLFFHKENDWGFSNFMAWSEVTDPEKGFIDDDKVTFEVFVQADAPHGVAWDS
For the substance “FITC-labelled FAN1-derived 8mer peptide, wild-type (181-PQSS-184 region) P181A”, the response (% (normalized FP)) turned out to be 100.

Turning to “FITC-labelled FAN1-derived 8mer peptide, wild-type (181-PQSS-184 region) S184A”, the response (% (normalized FP)) amounted to 30.

As for “FITC-labelled FAN1-derived 8mer peptide, wild-type (181-PQSS-184 region) Q182A”, the response (% (normalized FP)) worked out at 99.

Source of the values: article PMC13086964, “USP7 deubiquitinase stabilizes FAN1 to support DNA crosslink repair and suppress CAG repeat expansion” (Nature Communications, 2026).
